Source: the supplement of paper PMC9170038

System: K4 kissing-loop RNA reporter
Experiment: apparent KD of K4 kissing-loop reporter; higher = weaker reporter binding
Settings: Eterna round: R107
Experimental: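 RNA-MaP round R107: designed RNA switches with theophylline, tryptophan, arginine or FMN aptamers are transcribed on-chip within common flanks. They are titrated with a labelled K4 kissing-loop RNA reporter in RNA-MaP buffer (100 mM Tris pH 7.5, 80 mM KCl, 4 mM MgCl2), without ligand or with the indicated ligand. Median apparent KD per design.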

[1] = input ligand: theophylline 20 uM
[2] = input ligand: tryptophan 2.4 mM
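Note: bound reporter read as fluorescence of individual clusters on recovered sequencing chips by microscopy, with normalized cluster intensities fitted with a binding model.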

Sequence	apparent KD of K4 kissing-loop reporter (input ligand: FMN 200 uM) [µM]	apparent KD of K4 kissing-loop reporter (input ligand: arginine 13.2 mM) [µM]	apparent KD of K4 kissing-loop reporter (input ligand: none) [µM]	apparent KD of K4 kissing-loop reporter [1] [µM]	apparent KD of K4 kissing-loop reporter [2] [µM]
UGGAGUUGACGAAAAGUCAACUCCCGAGAAGGAGCGGACGAAAGUCCAGGUAGGUCGCUCGCUACCAGUGAUGUUGGUACUUUAA	0.147	0.189	0.174	0.219	0.147
UAUUAAUUGUCAGGAUAUCGAAAUCGAGUGAUGUUCGUAAAUUAAUUAUUAUUAAUAAUAUUUAUACGAGAAGGGACAUUAUUUA [JR_SSFMNB_Sub002]	0.236	0.671	0.758	0.78	0.532
ACGCGCGCGAGUGAUGUUCGGAGCGGCUGGCAGGAUAUGGAGCAAUCCAGAAGGGUCGUGGCUGCUGGUAGGAAACUACUGGCAG [#2 Exclusion - FMN A Attempt #3 (HarryS)]	0.135	0.239	0.35	0.33	0.299
GGUAGCAUGGCGGCCGCCACUGCGAAUGACGGCCACGUGAAAGUUGCCGCAGAGUGAUGUUCUGGCAGGACCGGGCCAUGCUACC	0.432	0.372	0.515	0.477	0.354
UGACUGGACUGAAGGAGCGCUUAACUCCUAGUGAUGUUAGGGAAACGAGACAAAGUCUCGAAGCAGGUAGGUCGCAGUCUAGUCU	0.216	0.164	0.217	0.211	0.194
UGUACCGAGUCAGGAUAUCAUAAUAAUCCAGUGAUGUUGGAAUAACCAGUACAAAAGUGCUGGCCUUGAGAAGGGACUUGGUACU [FmnBS 4 #SwitchBubble #StaticStem]	0.179	0.14	0.177	0.157	0.147
UAGGAUUUUUCGGCCGCCACUCUAGAUUCUGUGUAUUAUCUACGACUUGAAGUGAUGUUUCAGGAGAGGACCGGGAAGAUAUAAC [theeternabot_exclusion_KL_Trp_B_27]	0.226	0.21	0.238	0.307	0.225
AUUAAUAACUGAGGAUAUCGAAAUUAUGUAGUGAUGUUACUGUAAAUUCAAAUUUUCAUUUCUUAACGAGAAGGCAGAAUAAUUA [JR_ExcFMNB_Sub012]	0.173	0.185	0.115	0.2	0.0868
AAAUAAAGCAGUCACCCAGUGAUGUUGGAAGGAGCGUGCGAAAGCACAGGUAGGUCGCCAAAAUAAAAGUGGCUGCGGCAAAGCC [#SwitchBubble 24 #K4Early]	0.627	0.283	0.492	0.338	0.222
AGUGAUGUUUUUUUUAAGAGUGAUGUUUUUCGAGGACCGGUACGGCCGCCACUCGAGUGAUGAGUGAGGUGUGGUGAUGUUUAGU [#09 K4 Tryptophan A Exclusion]	0.287	0.279	0.351	0.316	0.205
AGAACUGUCUGAGAUACCAGCCAGGAAGUGAUGUUUCCAGCUCGACGAAAGUCGAGCCAUGGCCCUUGGCAGCUCAGACAGUUCA [Omei KL Theo B SS A v4]	0.178	0.147	0.149	0.118	0.166
GCCGUACGCAUGGAUACCAGAGUCUUUCUAGUGCCUCUGGAGUACAGUGAUGUUGUGCCACUCCCUUGGCAGCCAUGCGUACGGC	1.08	0.647	0.906	0.671	0.768
UGUCAUUGGUCUGAUACCAGCUGAUCGGAAACGAUCAUGCUGGAGUGAUGUUCCAGGAAAAGCCCUUGGCAGCAGACCGAUGACU [TheoBS 11 #SwitchBubble #StaticStem]	0.474	0.248	0.121	0.405	0.195
AAUUAAUGUAUAGAUUAUAUACAUUAAUCAGAGGAUAUGCAUUAUUGCAGAAGGCUGAAUGCAGUGAUGUUGCAAUAAUAAUUUA [JR_SSFMNA_Sub003]	0.0606	0.229	0.186	0.313	0.151
GUAGGAUGAGGAGGAGGAUGAAUUACUGAAGGAGCGCAUAUUUAUGCAGGUAGGUCGCGGUAAAGAAGUAUAGUGAUGUUAUAUA [SSArgA.I]	0.41	0.343	0.264	0.479	0.246
AUAGGAGUGAUGUUCCUUAGUUUCUCCGAUACCAGUAUGGAAACAUACCCUUGGCAGCGGUAAACCGCAGAUUAGGAAACUAGUC [Theophylline A K4 2]	0.308	0.332	0.324	0.241	0.297
AAGCAUUCUUCGGAAUGCAGACCCGCUGAGGAGGAUAUGACGAAAGUCAGAAGGUCUCAGUGAUGUUGAGGCCUCCUCAAUGGUC [whbob_Ex_FMNA__2th181]	0.212	0.16	0.155	0.16	0.162
GGCAGUGAUGUUGCCAGUGGCGGAUGCGAAGGAGCGCGGUGAGACGCAGGUAGGUCGCGCAUUGAAAUUGCUGUCACUAGGAUGC [whbob_Ex_Arginine_A_2t129]	0.272	0.262	0.267	0.313	0.212
UACUAUAGUGAUGUUAUAGAUAAACCAGAUACCAGUGUAACAUAACACCCUUGGCAGCUGAUGAGGGAAAAUAUAAAUGUGUAUU [AstrosSSTHe-A#4newdesignED10.09]	0.196	0.204	0.198	0.197	0.197
UAGUCCUCUUCUUAUUUAUUCCCUAAUGCUAAGGAUAUCCGAAUUCGGAGAAGGUAGUGAUGUUACUUGAAGGGACAUAUUUAUU [AK6 Exc FMN A]	0.412	0.554	0.684	0.771	0.617
GUCAACCCAGCUGAUACCAGCCGGUUACGCACAUGCACACCCAGUGAUGUUGGGUAUUAGGGCCCUUGGCAGCAGCCUCUUGGCU [theeternabot_sameState_KL_Theo_B_30]	0.165	0.162	0.169	0.182	0.149
UGUGAACAAAAGUAGAGUGGACCACUAUAGCGAGGACCGGUACGGCCGCCACUCGUAUAUGAAUUCAGUGAUGUUGAAAAGAGCU [whbob_EX_Tryp_A_t10]	0.18	0.281	0.231	0.306	0.165

Sequence	apparent KD of K4 kissing-loop reporter (input ligand: FMN 200 uM) [µM]	apparent KD of K4 kissing-loop reporter (input ligand: arginine 13.2 mM) [µM]	apparent KD of K4 kissing-loop reporter (input ligand: none) [µM]	apparent KD of K4 kissing-loop reporter [1] [µM]	apparent KD of K4 kissing-loop reporter [2] [µM]
AGUACGCCCAGUGAUACCAGCCCGCCUGGGCAGUGAUGUUGCUCGGGAAAUAAAAUAGAGGGCCCUUGGCAGCACACGGUAGUCC [Cees]	0.186	0.144	0.189	0.107	0.174
AGCCAGGAACUUGCAACCUGGCUGCUGGAUACCAGCUCGGAAACGAGCCCUUGGCAGCCAGUACUUGCAGUGAUGUUGCAAGUUC [Design13]	0.0722	0.0373	0.153	0.0259	0.29
GCUAUGGUAGGAAGGAGCGCUAAUUUAUUUUUACGAGUGAUGUUCGGUAGUAGAUUGUUAAAGCAGGUAGGUCGCCUACUAUAGC [Arginine B K4 17]	0.103	0.124	0.106	0.0857	0.0925
AGUGUCAGUGAUGUUGAGAAGAUGGGUACUAAGGAUAUGCGGCGAUGCAGAAGGUAGAAUGAUUAGUUCGCAUGUUAUGAGGGAU [theeternabot_exclusion_KL_FMN_A_46]	0.484	0.364	0.573	0.487	0.336
GCUAUGGUAGGAAGGAGCGCUUAUUUAUUAAUAAGAGUGAUGUUCGAUAAUAAAUAUUUAUAGCAGGUAGGUCGCCUACUAUAGC [Arginine B K4 1]	0.225	0.219	0.232	0.227	0.204
GUAGUCGUACCUUCAGUGAUGUUGAAGGAUACCAGAUGUUACCACAUCCCUUGGCAGCCUUGGGAUAACAGUGAGUUGGAAUAUG [Soonusa]	0.161	0.127	0.159	0.138	0.16
AAUGCAUAGUGAAGGAGCGCGAUAAGCAGUGAUGUUGCUUAGUUAUAAGUGUUUAUUUAUUCGCAGGUAGGUCGCACUUUGCAUA [JR_ExcArginiB_Sub019]	0.147	0.111	0.124	0.117	0.132
GGGAGUAGUGCGGCCGCCACUGUGAAAGAAGAAGAAUAUAGUGAUGUUAUAUAGGAAAUAAAGAAUAGGACCGGGCAUUAGAUUU [SSTRyptB.L]	0.282	0.19	0.221	0.186	0.161
CCUUCUCUUGAUAGUGAUGUUAUCAAGGACAAGGAUAUCAUCUCAAUGAGAAGGUGUCCUUGAUAACAUGGAGGUCUGAAACAGA [Omei KL FMN A Exc C v3]	0.148	0.249	0.287	0.407	0.385
GCACGAGUGAUGUUCGUUGGCAUGCAUUCCGAGGAUAUGGGAUUAGCCAGAAGGCGGAAUCGGUCUUCGAGUGAUGUUCGAAGAU [Same State FMN A GF 13]	0.104	0.0878	0.113	0.0872	0.109
GGUAGCAUGGCGGCCGCCACUUAGACCCUCCAGGAUGAGGGAAAAUAGCAGUGAUGUUGCUAGGUAAGGACCGGGCCAUGCUACC	0.23	0.12	0.162	0.156	0.119
GAUCUGAACGAAAGUUCGGAUCAGUCCGAUACCAGUAUGGAUUCAUACCCUUGGCAGCGGUUAUCUGCUAUGGAGUGAUGUUCCU [Theophylline A K4 12]	0.363	0.332	0.41	0.447	0.227
UUAUAUUUUAUAUUUAGUAGAGCUCUCACUCGAGGACCGGUACGGCCGCCACUCGAGUGAUGUUCGAGUGGGAGAGCUCUACAUU [AK3.2 EXC Tryptophan A]	0.118	0.104	0.0998	0.116	0.315
AAGUGUGUGGCGGCCGCCACUAGAAUCCAGUGAUGUUGGAAUAAUCAAAUAAAUAAUAAUAAACAUAGGACCGGGCCAUAUAGAA [Same State - Tryptophan B (Freestyle 1)]	0.145	0.14	0.145	0.157	0.139
AACUGGGUUCGUGAUACCAGCUCACACAUGAGUGAUGUUCAUGUAGUGGGUAAAAUGUGGAGCCCUUGGCAGCACUGUGACCACG [XTheo-B1]	0.0915	0.0764	0.0812	0.0675	0.0813
GCGCGGGAGUGAUGUUCCAAGUGGUGUUAGCGAGGACCGGUACGGCCGCCACUCGUUACGGGCGGCCCGUAGGAUACACUGGCGC [Same State - Tryptophan A (Freestyle 18)]	0.431	0.399	0.43	0.56	0.392
GGACGCCGGUCGGCCGCCACUCACAGCAGUGAUGUUGCUGAGCUUGUAGCGGAGUGAUGUUCCGAGAGGACCGGGACUGCAGUUU [Same State Tryptophan B GF 10]	0.522	0.506	0.739	0.55	0.532
UGACUGGACUGAAGGAGCGCUGAACUCCUAGUGAUGUUAGGAUAACGAGACAAAGUCUCGAAGCAGGUAGGUCGCAGUCUAGUCU	0.118	0.0953	0.112	0.123	0.108
GUUACGCAUGGAAGGAGCGCGAAAAUUAAAUGUGAGUGAUGUUCACAAAUAAAUUAAAUAACGCAGGUAGGUCGCCAUGUGUAAC [Ex Arginine B K4 3]	0.0803	0.0776	0.089	0.0807	0.0809
GGUAGCAUGGCGGCCGCCACUUCAAGUGGAGUGAUGUUCCGCGGCAUCGCGAAAGCGAUGCCUGGAAGGACCGGGCCAUGCUACC	1.09	0.858	0.924	0.797	0.305
ACACUAUCGUCAUAGACGGUAGUGACAUCUCAGGAUAUAAGUGAUGUUAGAAGGGAGAAAAUCUUAGGUAUCGAAUAGAUACCAA [FmnA 8 #K4BetweenAptamer #OpenEnded]	0.415	1.1	1.27	0.821	1.38
